Results from US11786477B2, “Fibrin particles and methods of making the same” (NORTH CAROLINA STATE UNIVERSITY, priority 2017, dated 2023).

Tests used:
Human dermal fibroblasts = assay: In vitro 3D collagen gel wound model, cell migration into biopsied wound; format: cell-based; conditions: 3D collagen gels, 20 μl sample into biopsied region, compared with saline and free KGF controls
Description: Human dermal fibroblasts (500,000 cells/ml) were embedded in 3D collagen gels (3 mg/ml) in serum-free culture media. Using biopsy punches, “wounds” 2 mm in diameter were created with approximately 0.5-1 mm depth. The biopsied 3D wounds were filled with fibrin nanoparticles (FBN), FBN with attached Keratinocyte Growth Factor (FBN-KGF) or saline (controls). The number of cells migrating into the hole from the surrounding 3D collagen gel was counted every 18-24 hours. Data from each sample was normalized to its biopsy area (in mm^2). The cell migration rate was measured by counting cell numbers within the normalized biopsy area (# cells/unit area) on each day. Each treatment was compared with saline and KGF only controls. […] Bulk fibrin sealants require high concentrations of fibrinogen and thrombin in order to induce fast polymerization at the surgical/wound site; by delivering prepolymerized FBNs we are able to circumvent this issue and without inhibiting migration.

[1] = test system: epithelial dorsal dermal wounds; assay: In vivo dermal wound healing in mice; conditions: C57BF/6 mice; for 3-day average dermal area closure: 4 mm biopsy punch wounds, first 3 days; for slope of linear fit of average % normalized wound area: assuming linear healing rate of the first 3 days
Description: In vivo validation that fibrin nanoparticles can assist wound healing was performed in mice. Dermal wounds were created and the rate of healing measured over several days. Two epithelial dorsal dermal wounds were created in10-week-old healthy male […]/6 mice (Charles River Faboratories Wilmington, Mass.) using a 4 mm diameter biopsy punch. The skin was excised and the inner […] was removed using surgical tools. Wound healing due to skin refolding was prevented by stitching the surrounding skin to a sterilized silicone ring. The annular silicone ring was laser cut from a silicone sheet acquired from Grace Bio-Fabs, Bend, Oreg., to a required inner diameter of 4.9 mm. The silicone ring was held in position with stationary glue and stitches. […] Each wound was immediately imaged using a handheld Nikon camera and separately treated with control 0.9% saline, bulk fibrin gel (400 (μg), FBN (20 (μg), or FBN-KGF (20 μg at the highest concentration). After treatment, the wound was covered with translucent moisture responsive catheter dressing (IV3000, Smith & Nephew, Andover, Mass.) attached over the silicone ring. The porous sheet was also laser cut to the required dimensions to aid the surgeon and to match the wound area. The wound area was imaged using a handheld Nikon camera every 24 hours after removing the translucent dressing. Image analysis of the wound was performed in ImageJ and the scale was measured using the known inner diameter of the silicone ring. The % change in wound area on each day was compared its wound area in day 0 (day of biopsy). The rate of wound healing was quantified by plotting averaged % normalized wound area for each wound treatment. The slope of a linear fit of the average % normalized wound area for the first 3 days post biopsy was calculated in Prism and 2-way Anova statistics were performed to compare the slopes of each treatment (FIG. 9).

Molecule | cell recruitment / cell migration into 3D wound (Human dermal fibroblasts) | 3-day average dermal area closure [1] [%] | slope of linear fit of average % normalized wound area [1]
FBN-KGF: Keratinocyte growth factor covalently coupled to FBN using carbodiimide and N-hydroxysulfosuccinimide (conjugate, UniProt P21781 32-194, looked up, coupled to FBN nanoparticles, Keratinocyte growth factor covalently coupled to FBN using carbodiimide and N-hydroxysulfosuccinimide) Fibroblast growth factor 7: CNDMTPEQMATNVNCSSPERHTRSYDYMEGGDIRVRRLFCRTQWYLRIDKRGKVKGTQEMKNNYNIMEIRTVAVGIVAIKGVESEFYLAMNKEGKLYAKKECNEDCNFKELILENHYNTYASAKWTHNGGEMFVALNQKGIPVRGKKTKKEQKTAHFLPMAIT | significantly enhanced cell recruitment and or cell proliferation | 48±9 | −16±3
free KGF: Keratinocyte growth factor (CYT-219, Prospec Protein Specialist) (protein, UniProt P21781 32-194, looked up) Fibroblast growth factor 7: CNDMTPEQMATNVNCSSPERHTRSYDYMEGGDIRVRRLFCRTQWYLRIDKRGKVKGTQEMKNNYNIMEIRTVAVGIVAIKGVESEFYLAMNKEGKLYAKKECNEDCNFKELILENHYNTYASAKWTHNGGEMFVALNQKGIPVRGKKTKKEQKTAHFLPMAIT |  | 42±12 | −14±2
